In patent publication US20230265192A1 (GIGAGEN, published 2023):

Experiments:
[1] = molecular target: T1, His-tagged cynomolgus CTLA-4 (CT4-C5227; Acro Biosystems) (cynomolgus, UniProt G7PL88 36-161); test: BLI (Octet)
T1 construct: also called soluble cynomolgus CTLA-4; cyno CTLA-4
Experimental: (§1) The binding specificity and affinity of each full-length antibody towards CTLA-4 were determined using biolayer interferometry (BLI) and/or surface plasmon resonance (SPR). Anti-cyno CTLA-4 and anti-mouse CTLA-4 affinities were tested using ForteBio (BLI). Anti-human CTLA-4 affinities were measured using Carterra (SPR).
(§2) For BLI, antibodies were loaded onto an Anti-Human IgG Fc (AHC) biosensor using the Octet Red96 system (ForteBio). Loaded biosensors were dipped into antigen dilutions beginning at 300 nM, with 6 serial dilutions at 1:3. Kinetic analysis was performed using a 1:1 binding model and global fitting.

[2] = molecular target: mouse CTLA-4 (mouse, UniProt P09793 36-161, limits assumed); test: BLI (Octet)
mouse CTLA-4, sequence (P09793 36-161 limits assumed): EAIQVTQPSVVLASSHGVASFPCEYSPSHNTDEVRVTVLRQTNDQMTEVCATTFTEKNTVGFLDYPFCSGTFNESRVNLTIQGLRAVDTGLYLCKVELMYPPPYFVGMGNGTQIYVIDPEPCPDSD
Experimental: as §1, §2

[3] = molecular target: T2, His-tagged human CTLA-4 (CT4-H5229; Acro Biosystems) (human, UniProt P16410 36-161); test: SPR (Carterra)
T2 construct: bought soluble protein; also called soluble human CTLA-4; recombinant human CTLA-4; not shown: His tag
T2 sequence (P16410 36-161 limits assumed): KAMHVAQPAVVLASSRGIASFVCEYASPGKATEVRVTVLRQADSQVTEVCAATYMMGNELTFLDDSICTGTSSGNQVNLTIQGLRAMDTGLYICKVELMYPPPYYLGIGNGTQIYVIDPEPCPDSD
Experimental: (§3) Then, goat anti-Human IgG Fc (Southern Biotech 2047-01) was coupled for 10 minutes at […] in 10 mM Sodim Acetate pH 4.5 (Carterra Inc.). The surface was then deactivated with 1 M ethanolamine pH 8.5 (Carterra Inc.). Running buffer used for the lawn immobilization was HBS-EPC (10 mM HEPES, 150 mM NaCl, 3 mM EDTA, 0.05% Tween 20, pH 7.4; Teknova).
(§4) The sensor chip was then transferred to a continuous flow microspotter (CFM; Carterra Inc.) for array capturing. The mAb supernatants were diluted 50-fold ([…] final concentration) into HBS-EPC with 1 mg/mL BSA. The samples were each captured twice with 15-minute and 4-minute capture steps on the first and second prints, respectively, to create multiple densities, using a […] flow rate. The running buffer in the CFM was also HBS-EPC.
(§5) Next, the sensor chip was loaded onto an SPR reader (MX-96 system; Ibis Technologies) for the kinetic analysis. CTLA-4 was injected at five increasing concentrations in a four-fold dilution series with concentrations of 1.95, 7.8, 31.25, 125, and 500 nM in running buffer (HBS-EPC with 1.0 mg/mL BSA). CTLA-4 injections were 5 minutes with a 15-minute dissociation at […] in a non-regenerative kinetic series. An injection of the goat anti-Human IgG Fc capture antibody at […] was injected at the end of the series to verify the capture level of each mAb. Binding data was double referenced by subtracting an interspot surface and a blank injection and analyzed for ka (on-rate), kd (off-rate), and KD (affinity) using the Kinetic Interaction Tool software (Carterra Inc.).

[4] = molecular target: T2, His-tagged human CTLA-4 (CT4-H5229; …); test: SPR (Carterra); remark: listed apart in the source
Experimental: as §3, §4, §5

[5] = molecular target: T3, human CTLA-4 expressed on the cell surface (human, UniProt P16410 36-223); test: cell-based or functional assay
T3 sequence (P16410 36-223 limits assumed): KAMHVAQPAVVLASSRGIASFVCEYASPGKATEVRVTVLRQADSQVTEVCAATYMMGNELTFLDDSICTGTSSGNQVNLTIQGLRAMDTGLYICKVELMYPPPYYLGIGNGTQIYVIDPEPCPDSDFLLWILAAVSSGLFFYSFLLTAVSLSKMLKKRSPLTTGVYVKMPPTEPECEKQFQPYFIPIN

[6] = molecular target: T3, human CTLA-4 expressed on the cell …; test: cell-based or functional assay; remark: listed apart in the source
[7] = molecular target: T2, His-tagged human CTLA-4 (CT4-H5229; …); test: SPR (Carterra), soluble human CTLA-4
[8] = molecular target: T1, His-tagged cynomolgus CTLA-4 …; test: BLI (Octet), single antigen concentration
Experimental: (§6) Table 23. In vitro characterization of scFvs reformatted as full-length antibodies. kon, koff, and KD of the indicated CTLA-4 mAbs for soluble human CTLA-4 was determined by SPR (Carterra). Geometric MFI of the indicated CTLA-4 mAbs bound to CTLA-4⁺ or CD27⁺ CHO cells as detected by a secondary human IgG antibody and flow cytometry. Affinity (KD) of the indicated CTLA-4 mAbs for soluble cynomolgus CTLA-4 was determined by a single antigen concentration BLI measurement (Octet). […] Due to constraints on sample size in each Promega bioassay kit, this set of aCTLA-4 mAbs was analyzed using multiple plates (plate letters correspond to Plate A-D in FIG. 20D).
Antibodies were loaded at 5 μg/mL onto Protein A biosensors that were dipped into 80 nM antigen, and kinetic constants were calculated using a monovalent model.

[9] = molecular target: T3, human CTLA-4 expressed on the cell …; test: flow cytometry, 10 µg/mL mAb, geometric MFI
Experimental: as §6
(§7) To determine if the CTLA-4 mAbs bound the appropriate antigen expressed on the surface of mammalian cells, CHO cell lines stably expressing human CTLA-4 or an irrelevant antigen (CD27) were generated. Cells (0.5×10⁶ each cell line) were combined and washed with MACS buffer (Dulbecco's Phosphate Buffered Saline [DPBS], with 0.5% bovine serum albumin [BSA], and 2 mM ethylenediaminetetraacetic acid [EDTA]). The cells were incubated with 10 μg/mL anti-CTLA-4 for 30 min at 4° C., then excess, unbound mAbs were removed by washing twice with MACS buffer. The cells were then stained with PE-conjugated anti-Human IgG Fc antibody (clone M1310G05, BioLegend 410720, San Diego, Calif., USA) to detect bound anti-CTLA-4 and with fluorescein isothiocyanate (FITC)-conjugated anti-CD27 (clone 0323, BioLegend 302806, San Diego, Calif., USA) to distinguish the cells expressing the irrelevant antigen. Cells were washed twice with MACS buffer, fixed with 4% paraformaldehyde fixation buffer (BioLegend 420801, San Diego, Calif., USA) for 20 minutes at room temperature and washed twice more with MACS buffer.

[10] = molecular target: T4, CD27 on CHO cells (UniProt P26842 20-260, limits assumed); test: flow cytometry, 10 µg/mL mAb, geometric MFI
T4 construct: whole, on cells; also called CD27+ CHO cells; irrelevant antigen (CD27)
T4 sequence (P26842 20-260 limits assumed): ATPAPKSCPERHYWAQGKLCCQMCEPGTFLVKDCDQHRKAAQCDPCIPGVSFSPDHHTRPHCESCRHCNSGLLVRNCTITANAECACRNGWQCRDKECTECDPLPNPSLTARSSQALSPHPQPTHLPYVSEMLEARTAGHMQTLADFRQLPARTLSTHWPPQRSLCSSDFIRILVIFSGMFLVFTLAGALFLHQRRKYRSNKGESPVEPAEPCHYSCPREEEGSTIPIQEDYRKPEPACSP
Experimental: as §6, §7

[11] = molecular target: T4, CD27 on CHO cells; test: flow cytometry, mixed CTLA-4+ and CD27+ CHO cells
Experimental: To determine if the CTLA-4 mAbs bound the appropriate antigen expressed on the surface of mammalian cells, CHO cell lines stably expressing human CTLA-4 or an irrelevant antigen (CD27) were generated. Cells (0.5×10⁶ each cell line) were combined and washed with MACS buffer (Dulbecco's Phosphate Buffered Saline [DPBS], with 0.5% bovine serum albumin [BSA], and 2 mM ethylenediaminetetraacetic acid [EDTA]). The cells were incubated with 10 μg/mL anti-CTLA-4 for 30 min at 4° C., then excess, unbound mAbs were removed by washing twice with MACS buffer. The cells were then stained with PE-conjugated anti-Human IgG Fc antibody (clone M1310G05, BioLegend 410720, San Diego, Calif., USA) to detect bound anti-CTLA-4 and with fluorescein isothiocyanate (FITC)-conjugated anti-CD27 (clone 0323, BioLegend 302806, San Diego, Calif., USA) to distinguish the cells expressing the irrelevant antigen. Cells were washed twice with MACS buffer, fixed with 4% paraformaldehyde fixation buffer (BioLegend 420801, San Diego, Calif., USA) for 20 minutes at room temperature and washed twice more with MACS buffer. […] Binding of mAbs to CTLA-4 on the cell surface was determined using LSR II (BD Biosciences, San Jose, Calif., USA) or CytoFLEX LX (Beckman Coulter, Brea. Calif., USA) flow cytometers and analyzed using FlowJo (v10.6.1, BD Biosciences, San Jose, Calif., USA).

[12] = molecular target: T5, rcmCTLA-4-Fc from Sino Biological (90213-C02H) (cynomolgus monkey); test: ELISA, against R&D rhCTLA-4 Fc on the same plate
T5 construct: also called Sino Biological rcmCTLA-4 Fc
Experimental: (§8) Recombinant human CTLA-4-Fc (rhCTLA-4) from R&D Systems (7268-CT-100, FIGS. 36A-36C) was coated at 1 ug/mL, on the other half of each of the plates. […] RhCTLA-4-Fc (ACROBiosystems, CT4-H5229, FIGS. 36D-E) was coated at 1 ug/mL, on the other half of each of these plates. After coating, the plates were incubated overnight at 4° C.
(§9) The following day, the plates were blocked with 5% milk in PBST for 1 hour on a plate shaker at room temperature. […] Excess, unbound mAbs were removed by washing with PBST. Bound mAbs were then detected with an HRP-conjugated anti-kappa light chain antibody (0.5 ug/ml, Southern Biotech 2060-50). After incubation on a plate shaker for 1 hour at room temperature and washing, the plates were developed with TMB substrate. After sufficient signal was achieved, 1 N hydrochloric acid was added to stop development. Absorbance at 450 nm was read using a Spectramax i3x plate reader (Molecular Devices). EC50 values were calculated by plotting absorbance vs. the log of concentration using Prism (GraphPad).

[13] = molecular target: T6, rcmCTLA-4-Fc from ACROBiosystems (CT4-C5256) (cynomolgus monkey); test: ELISA, against R&D rhCTLA-4 Fc on the same plate
T6 construct: also called ACROBiosystems rcmCTLA-4 Fc; ACROBiosystems cCTLA-4 Fc
Experimental: as §8, §9

T1 sequence (G7PL88 entry or part of it limits assumed, form in doubt): as the sequence (P16410 36-161 limits assumed) above, with S14N, I18T, L106M counted along it

B1: antibody A9 (L9H9) (antibody, V domains shown)
VH: QVQLVESGGGVVQPGRSLRLSCAASGFTFSSHGMHWVRQAPGKGLEWVAVIWYDGSNKHYADSVKGRFTISRDNSKNTLYLQMNSLRAEDTAVYYCARGDILTGYYGYWGQGTLVTVSS
VL: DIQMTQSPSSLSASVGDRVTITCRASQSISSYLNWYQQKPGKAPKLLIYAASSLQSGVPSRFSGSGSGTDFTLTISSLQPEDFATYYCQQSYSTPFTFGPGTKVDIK
notes: also called aCTLA-4.24
- Kd [1]: 0.92 nM
- binding result [2]: no binding (tested: 300 nM)
- Kd [3]: 6.8 nM
- Kd [4]: 6.8 nM
- koff [4]: 0.00043 s⁻¹
- kon [4]: 63000 M⁻¹ s⁻¹
- Promega assay % inhibition [5]: 60.8%
- Promega assay antagonist (EC50, ug/mL) [5]: 0.19 µg/mL
- Cell-based blocking activity EC50 [6]: 0.19 µg/mL
- Cell-based blocking activity max signal (RLU) [6]: 333 RLU
- Kd [7]: 6.8 nM
- koff [7]: 0.00043 s⁻¹
- kon [7]: 63000 M⁻¹ s⁻¹
- Kd [8]: 0.9 nM
- MFI of CTLA-4+ CHO cells [9]: 934
- MFI of CD27+ CHO cells [10]: 26
- binding result [11]: no binding (tested: 10 µg/mL)

B2: antibody A3 (L3H3) (antibody, V domains shown)
VH: QVQLVESGGGVVQPGRSLRLSCIASGFTFSSYGMHWVRQAPGKGLEWVAVNWYDGSNKHYADSVKGRFTISRDNSKNTLYLQMNSLRAEDTAVYYCARGGVWGPYFDYWGQGTLVTVSS
VL: not shown
notes: also called aCTLA-4.2
- Kd [1]: 1.2 nM
- binding result [2]: no binding (tested: 300 nM)
- Kd [3]: 1.5 nM
- Kd [4]: 1.5 nM
- koff [4]: 0.00028 s⁻¹
- kon [4]: 190000 M⁻¹ s⁻¹
- Promega assay % inhibition [5]: 49.8%
- Promega assay antagonist (EC50, ug/mL) [5]: 0.18 µg/mL
- Cell-based blocking activity EC50 [6]: 0.18 µg/mL
- Cell-based blocking activity max signal (RLU) [6]: 273 RLU
- Kd [7]: 1.5 nM
- koff [7]: 0.00028 s⁻¹
- kon [7]: 190000 M⁻¹ s⁻¹
- Kd [8]: 1.2 nM
- MFI of CTLA-4+ CHO cells [9]: 1050
- MFI of CD27+ CHO cells [10]: 18.2
- binding result [11]: no binding (tested: 10 µg/mL)

B3: antibody A1 (L1H1) (antibody, V domains shown)
VH: QVQLVESGGGVVQPGRSLRLSCAASGFTFSSFGMHWVRQAPGKGLEWVAVIWYDGRNKYYVDSVKGRFTISRDNSNNTLYLQMNSLRAEDTAVYYCARGEFFGEFFDYWGQGTLVTVSS
VL: EIVLTQSPGTLSLSPGEGATLSCRASQSFSSNYLAWYQQKPGQAPRLLIYGASSRATGIPDRFSGSGSGTDFTLTISRLEPEDFAVYYCQQYGTSPFTFGPGTKVDIK
notes: also called aCTLA-4.9; CTLA4.A1
- Kd [1]: 0.96 nM
- Kd [2]: 51 nM
- Kd [3]: 0.77 nM
- Kd [4]: 0.77 nM
- koff [4]: 0.00016 s⁻¹
- kon [4]: 210000 M⁻¹ s⁻¹
- Promega assay % inhibition [5]: 43.2%
- Promega assay antagonist (EC50, ug/mL) [5]: 0.13 µg/mL
- Cell-based blocking activity EC50 [6]: 0.13 µg/mL
- Cell-based blocking activity max signal (RLU) [6]: 237 RLU
- Kd [7]: 0.77 nM
- koff [7]: 0.00016 s⁻¹
- kon [7]: 210000 M⁻¹ s⁻¹
- Kd [8]: 1 nM
- MFI of CTLA-4+ CHO cells [9]: 1330
- MFI of CD27+ CHO cells [10]: 18.5
- binding result [11]: no binding (tested: 10 µg/mL)

B4: Ipilimumab (antibody, V domains shown)
VH: QVQLVESGGGVVQPGRSLRLSCAASGFTFSSYTMHWVRQAPGKGLEWVTFISYDGNNKYYADSVKGRFTISRDNSKNTLYLQMNSLRAEDTAIYYCARTGWLGPFDYWGQGTLVTVSSA
VL: not shown
notes: also called commercial ipilimumab; Yervoy
- Fold Change (EC50 of cyno divided by EC50 of human) [12]: 1.6
- Fold Change (EC50 of cyno divided by EC50 of human) [13]: 1.3
